Experimental data as given in patent US20240368289A1 (LAEKNA THERAPEUTICS SHANGHAI, published 2024).

Key:
[1] = molecular target: ACVR2A on HEK293T-B1 cells (ACVR2B knockout stable cell line) (UniProt P27037 20-513); test: cell-based or functional assay
[2] = molecular target: T1, ACVR2A mouse Fc fusion protein (mouse, UniProt P27037 20-135 (human entry), limits assumed); test: Activin A competitive ELISA; ACVR2A mouse Fc coated, antibody titrated, competitor activin A
T1 construct: not shown: mouse Fc
T1 sequence (P27037 20-135 limits assumed): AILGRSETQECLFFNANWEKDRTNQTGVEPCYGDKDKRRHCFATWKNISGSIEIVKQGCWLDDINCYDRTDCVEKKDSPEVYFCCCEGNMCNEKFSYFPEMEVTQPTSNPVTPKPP
Description: 2.3 Activin A Competitive ELISA. To select ACVR2A hits that could block the interaction between ACVR2A and its ligand Activin A, a competitive ELISA assay was set up. 30 μL 4.17 nM ACVR2A mouse Fc fusion protein was coated in 384-well HB plate at 4° C. overnight following blocking with 5% BSA. Anti-ACVR2A Fab fragment or antibodies with different concentrations were added to the plate and incubated on an orbital shaker at room temperature for 1 hours to allow binding of the antibodies. […] After 5 times washing with TBST, 30 μl of 20 nM goat anti-activin A polyclonal antibody (Abcam, ab7153) in blocking buffer was added into plate and incubated at room temperature for 1 hour. Last, 30 μl of anti-goat IgG-HRP (Beyotime, A0181) in blocking buffer (1:500 dilution) was added to plate for another 30 min incubation following washing step. Luminescence signal was collected on Tecan infinite M1000 after adding 30 μl ECL substrate.

[3] = molecular target: T2, recombinant protein comprising the human ACVR2A extracellular domain (ECD) fused to the human IgG1 Fc region (human, UniProt P27037 20-135); test: SPR, Biacore 3000 (1st test); ACVR2A-Fc captured by anti-human Fc, Fab injected
T2 construct: extracellular domain; also called ACVR2A-Fc; ACVR2A-FC; not shown: human IgG1 Fc region
T2 sequence (P27037 20-135): as the sequence (P27037 20-135 limits assumed) above
Text: (§1) 2.2 Surface Plasmon resonance (SPR) measurements and affinity analysis by anti-human Fc capture format. After affinity panning, output-3 (03) of CDRH1 library were screened for binding ability by Fab ELISA and followed by NGS DNA sequencing. Based on binding Elisa and sequence abundance from NGS data, 11 clones were select for SPR analysis. Approximately 100-800 resonance units (RU) of antigen ACVR2A, was captured by anti-human Fc immobilized on a channel of a CM5 chip with an activated amine group. After immobilization, Fab antibodies were injected into the channels at 25° C. in HBS-EP buffer, with a flow rate of 30 μL/min, 1 min. When the data collection was finished in each cycle, the sensor surface was regenerated using 80 mM NaOH with a flow rate of 30 μL/min, 15 sec and reused chip in next cycle. After subtraction of reference surface and buffer injection, curve was locally fitted with BIA evaluation version 4.1 using a 1:1 Langmuir binding mode.
(§2) The affinity of selected 11 anti-ACVR2A monoclonal antibody clones were determined on Biacore®3000 and Biacore®8000 as shown in Table 4 below.

[4] = molecular target: T2, recombinant protein comprising the …; test: SPR, Biacore 8000 (2nd test); ACVR2A-Fc captured by anti-human Fc, Fab injected
Text: as §1, §2

[5] = molecular target: T2, recombinant protein comprising the …; test: SPR, Biacore; format and antigen construct not given

Chain of ACVR2A on HEK293T-B1 cells (ACVR2B knockout stable cell line) (P27037 20-513): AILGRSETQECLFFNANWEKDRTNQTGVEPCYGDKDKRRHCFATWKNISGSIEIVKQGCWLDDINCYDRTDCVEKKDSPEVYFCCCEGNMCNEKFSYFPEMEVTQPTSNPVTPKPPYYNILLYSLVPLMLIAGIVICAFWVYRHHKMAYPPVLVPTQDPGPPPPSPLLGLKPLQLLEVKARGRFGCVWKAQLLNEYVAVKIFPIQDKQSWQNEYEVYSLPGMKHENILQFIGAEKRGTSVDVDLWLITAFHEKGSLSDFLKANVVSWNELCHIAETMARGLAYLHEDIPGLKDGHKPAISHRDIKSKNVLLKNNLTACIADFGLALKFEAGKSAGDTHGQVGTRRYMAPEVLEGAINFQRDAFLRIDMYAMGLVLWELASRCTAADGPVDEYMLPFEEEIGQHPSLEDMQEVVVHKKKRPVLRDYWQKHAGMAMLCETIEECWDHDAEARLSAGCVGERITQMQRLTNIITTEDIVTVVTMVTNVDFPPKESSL

Row | Binder | IC50 (M), HEK293T-B1 CAGA-Luc, Activin A [1] [M] | IC50 (M), HEK293T-B1 CAGA-Luc, GDF8 [1] [M] | IC50 [2] [nM] | Kd [3] [nM] | koff [3] [s⁻¹] | kon [3] [M⁻¹ s⁻¹] | Kd [4] [nM] | koff [4] [s⁻¹] | kon [4] [M⁻¹ s⁻¹] | Kd [5] [nM] | koff [5] [s⁻¹] | kon [5] [M⁻¹ s⁻¹]
1 | clone F (Fab) (Fab, V domains shown, Fab made in E. coli TG1 and purified on Ni-NTA) VH: QVQLVQSGAEVKKPGSSVKVSCKASGREFESLFISWVRQAPGQGLEWMGGLIPIFGTANYAQKFQGRVTITADESTSTAYMELSSLRSEDTAVYYCVKDLTWTNLGLDIWGQGTMVTVSS VL: EIVMTQSPSSLSASVGDTVTITCRASQSIGRWLAWYQQKPGKAPRLLIYAASSLHSGVPSRFSGSGSGTHFTLTISSLQPEDFATYFCQESYSNPYTFGPGTKLEIK |  |  |  | 11.8 | 0.000288 | 24400 | 1.47 | 0.000331 | 225000 |  |  | 
2 | clone E (Fab) (Fab, V domains shown, Fab made in E. coli TG1 and purified on Ni-NTA) VH: QVQLVQSGAEVKKPGSSVKVSCKASGFQFRTSLISWVRQAPGQGLEWMGGLIPIFGTANYAQKFQGRVTITADESTSTAYMELSSLRSEDTAVYYCVKDLTWTNLGLDIWGQGTMVTVSS VL: EIVMTQSPSSLSASVGDTVTITCRASQSIGRWLAWYQQKPGKAPRLLIYAASSLHSGVPSRFSGSGSGTHFTLTISSLQPEDFATYFCQESYSNPYTFGPGTKLEIK |  |  |  | 0.664 | 0.00019 | 285000 | 0.501 | 0.000153 | 307000 |  |  | 
3 | clone D (Fab) (Fab, V domains shown, Fab made in E. coli TG1 and purified on Ni-NTA) VH: QVQLVQSGAEVKKPGSSVKVSCKASGQFYHSRISWVRQAPGQGLEWMGGLIPIFGTANYAQKFQGRVTITADESTSTAYMELSSLRSEDTAVYYCVKDLTWTNLGLDIWGQGTMVTVSS VL: EIVMTQSPSSLSASVGDTVTITCRASQSIGRWLAWYQQKPGKAPRLLIYAASSLHSGVPSRFSGSGSGTHFTLTISSLQPEDFATYFCQESYSNPYTFGPGTKLEIK |  |  |  | 12.8 | 0.00232 | 181000 | 10.4 | 0.00285 | 273000 |  |  | 
4 | clone H (Fab) (Fab, V domains shown, Fab made in E. coli TG1 and purified on Ni-NTA) VH: QVQLVQSGAEVKKPGSSVKVSCKASGLGFHNFQISWVRQAPGQGLEWMGGIIPIYGTANYAQKFQGRVTITADESTSTAYMELSSLRSEDTAVYYCVKDLTWTNLGLDIWGQGTMVTVSS VL: EIVMTQSPSSLSASVGDTVTITCRASQGVSRWLAWYQQKPGKAPRLLIYAASSLHSGVPSRFSGSGSGTHFTLTISSLQPEDFATYFCQQSYSTPFTFGPGTKLEIK |  |  |  | 2.25 | 0.000698 | 311000 | 1.38 | 0.000901 | 651000 |  |  | 
5 | clone G (Fab) (Fab, V domains shown, Fab made in E. coli TG1 and purified on Ni-NTA) VH: QVQLVQSGAEVKKPGSSVKVSCKASGRHFGSLQISWVRQAPGQGLEWMGGIIPIYGTANYAQKFQGRVTITADESTSTAYMELSSLRSEDTAVYYCVKDLTWTNLGLDIWGQGTMVTVSS VL: EIVMTQSPSSLSASVGDTVTITCRASQGVSRWLAWYQQKPGKAPRLLIYAASSLHSGVPSRFSGSGSGTHFTLTISSLQPEDFATYFCQQSYSTPFTFGPGTKLEIK |  |  |  | 0.612 | 0.000152 | 248000 | 0.443 | 0.000282 | 637000 |  |  | 
6 | clone C (Fab) (Fab, V domains shown, Fab made in E. coli TG1 and purified on Ni-NTA) VH: QVQLVQSGAEVKKPGSSVKVSCKASGREFESLFISWVRQAPGQGLEWMGGIIPIYGTANYAQKFQGRVTITADESTSTAYMELSSLRSEDTAVYYCVKDLTWTNLGLDIWGQGTMVTVSS VL: EIVMTQSPSSLSASVGDTVTITCRASQGVSRWLAWYQQKPGKAPRLLIYAASSLHSGVPSRFSGSGSGTHFTLTISSLQPEDFATYFCQQSYSTPFTFGPGTKLEIK |  |  |  | 1.14 | 4.16e-05 | 36500 | 3.08 | 0.000247 | 90300 |  |  | 
7 | clone B (Fab) (Fab, V domains shown, Fab made in E. coli TG1 and purified on Ni-NTA) VH: QVQLVQSGAEVKKPGSSVKVSCKASGFQFRTSLISWVRQAPGQGLEWMGGIIPIYGTANYAQKFQGRVTITADESTSTAYMELSSLRSEDTAVYYCVKDLTWTNLGLDIWGQGTMVTVSS VL: EIVMTQSPSSLSASVGDTVTITCRASQGVSRWLAWYQQKPGKAPRLLIYAASSLHSGVPSRFSGSGSGTHFTLTISSLQPEDFATYFCQQSYSTPFTFGPGTKLEIK |  |  |  | 6.81 | 0.0022 | 323000 | 5.91 | 0.00253 | 428000 |  |  | 
8 | IgG 6401 (CDR shuffling) (antibody, V domains shown, IgG: human IgG1 / kappa from pFUSE vectors, made in 293F cells) VH: QVQLVQSGAEVKKPGSSVKVSCKASGPRFQDLSISWVRQAPGQGLEWMGGIIPIYGTANYAQKFQGRVTITADESTSTAYMELSSLRSEDTAVYYCVKDLTWTNLGLDIWGQGTMVTVSS VL: EIVMTQSPSSLSASVGDTVTITCRASQGPSRWLAWYQQKPGKAPRLLIYSARALHSGVPSRFSGSGSGTHFTLTISSLQPEDFATYFCQQSYSTPFTFGPGTKLEIK | 1.93e-09 | 2.16e-09 | 1.95 |  |  |  |  |  |  | 0.865 | 0.000135 | 156000
9 | IgG 3352 (CDR shuffling) (antibody, V domains shown, IgG: human IgG1 / kappa from pFUSE vectors, made in 293F cells) VH: QVQLVQSGAEVKKPGSSVKVSCKASGFQFRTSLISWVRQAPGQGLEWMGGLIPIFGTANYAQKFQGRVTITADESTSTAYMELSSLRSEDTAVYYCVKDLTWTNLGLDIWGQGTMVTVSS VL: EIVMTQSPSSLSASVGDTVTITCRASQGPSRWLAWYQQKPGKAPRLLIYAAQGLSSGVPSRFSGSGSGTHFTLTISSLQPEDFATYFCQQSYSTPFTFGPGTKLEIK | 2.28e-09 | 3.51e-10 | 2.07 |  |  |  |  |  |  | 0.584 | 9.41e-05 | 161000

More lines, now with the values ahead:

Row | IC50 (M), HEK293T-B1 CAGA-Luc, Activin A [1] [M] | IC50 (M), HEK293T-B1 CAGA-Luc, GDF8 [1] [M] | IC50 [2] [nM] | Kd [3] [nM] | koff [3] [s⁻¹] | kon [3] [M⁻¹ s⁻¹] | Kd [4] [nM] | koff [4] [s⁻¹] | kon [4] [M⁻¹ s⁻¹] | Kd [5] [nM] | koff [5] [s⁻¹] | kon [5] [M⁻¹ s⁻¹] | Binder
10 | 5.12e-09 | 2.06e-09 | 5.04 |  |  |  |  |  |  |  |  |  | hit J (IgG) (antibody, V domains shown, IgG: VH and VL cloned into pFUSEss-CHIg-hG1 (human IgG1 heavy) and pFUSE2ss-CLIg-hk (human kappa), made in 293F cells; also called parental clone "J") VH: QVQLVQSGAEVKKPGSSVKVSCKASGPRFQDLSISWVRQAPGQGLEWMGGIIPIYGTANYAQKFQGRVTITADESTSTAYMELSSLRSEDTAVYYCVKDLTWTNLGLDIWGQGTMVTVSS VL: EIVMTQSPSSLSASVGDTVTITCRASQGVSRWLAWYQQKPGKAPRLLIYAASSLHSGVPSRFSGSGSGTHFTLTISSLQPEDFATYFCQQSYSTPFTFGPGTKLEIK
11 | 4.91e-09 | 8.81e-10 | 6.04 |  |  |  |  |  |  | 0.872 | 0.000319 | 366000 | hit 275 (IgG) (antibody, V domains shown, IgG: human IgG1 / kappa from pFUSE vectors, made in 293F cells) VH: QVQLVQSGAEVKKPGSSVKVSCKASGFQFRTSLISWVRQAPGQGLEWMGGLIPIFGTANYAQKFQGRVTITADESTSTAYMELSSLRSEDTAVYYCVKDLTWTNLGLDIWGQGTMVTVSS VL: EIVMTQSPSSLSASVGDTVTITCRASQGPSRWLAWYQQKPGKAPRLLIYAASSLHSGVPSRFSGSGSGTHFTLTISSLQPEDFATYFCQQSYSTPFTFGPGTKLEIK
12 |  |  |  | 1.84 | 0.000468 | 254000 | 1.01 | 0.000379 | 374000 |  |  |  | clone I (Fab) (Fab, V domains shown, Fab made in E. coli TG1 and purified on Ni-NTA) VH: QVQLVQSGAEVKKPGSSVKVSCKASGESFEHFQISWVRQAPGQGLEWMGGIIPIYGTANYAQKFQGRVTITADESTSTAYMELSSLRSEDTAVYYCVKDLTWTNLGLDIWGQGTMVTVSS VL: EIVMTQSPSSLSASVGDTVTITCRASQGVSRWLAWYQQKPGKAPRLLIYAASSLHSGVPSRFSGSGSGTHFTLTISSLQPEDFATYFCQQSYSTPFTFGPGTKLEIK
13 |  |  |  | 0.489 | 0.000256 | 523000 | 0.212 | 0.000259 | 1.22e+06 |  |  |  | clone K (Fab) (Fab, V domains shown, Fab made in E. coli TG1 and purified on Ni-NTA) VH: QVQLVQSGAEVKKPGSSVKVSCKASGMPFQQSQISWVRQAPGQGLEWMGGIIPIYGTANYAQKFQGRVTITADESTSTAYMELSSLRSEDTAVYYCVKDLTWTNLGLDIWGQGTMVTVSS VL: EIVMTQSPSSLSASVGDTVTITCRASQGVSRWLAWYQQKPGKAPRLLIYAASSLHSGVPSRFSGSGSGTHFTLTISSLQPEDFATYFCQQSYSTPFTFGPGTKLEIK
